Bounds are passed on as bounds.

This passage reports stoichiometry N, Kd and apparent KD with ~2.5 M excess of FusANTR-GFP results from article PMC13253070.

Assay [1] concerns the target C-terminal domain of FusB (FusB-CTD), wild type (Pectobacterium carotovorum LMG2410). Kind of assay: SEC; FusB-CTD alone at varying load (0.2, 0.5, 0.8, 1.2, 2 mg); wild type and variants compared at 0.5 mg loaded; monomer and dimer species.
For assay [2] the target is unchanged. Kind of assay: ITC; 25 °C, SEC Buffer (20 mM Hepes, 140 mM NaCl, pH 8.0); typically 1.1 mM analyte injected 19 x 2 μl into 85 μM ligand in the cell; FusB-CTD constructs normally in the cell, SpFer and FusANTR-GFP constructs as injectants.
Assay [3] addresses FusB-CTD D322N (Pectobacterium carotovorum LMG2410). The description is as above.
Assay [4] deals with FusB-CTD R241A (Pectobacterium carotovorum LMG2410). Described as above.
In assay [5] the target is FusB-CTD R241K (Pectobacterium carotovorum LMG2410). The assay is described as above.
In assay [6] the target is C-terminal domain of FusB, R242K variant (Pectobacterium carotovorum LMG2410). Kind of assay: ITC; 25 °C, SEC Buffer (20 mM Hepes, 140 mM NaCl, pH 8.0), MicroCal iTC200; typically 1.1 mM injectant, 19 x 2 µl, into 85 µM protein in the cell; FusB-CTD constructs normally in the cell; mean of the titrations listed in Table S2.
For assay [7], the target named is C-terminal domain of FusB, wild type (Pectobacterium carotovorum LMG2410). The assay is described as above.
Assay [8] has as its target C-terminal domain of FusB, D322N variant (Pectobacterium carotovorum LMG2410). The assay is described as above.
For assay [9], the target named is C-terminal domain of FusB (FusB-CTD), wild type (Pectobacterium carotovorum LMG2410). The experiment in a line: ITC; competition, sequential titration: SpFer injected into the cell holding FusB-CTD (wild type or D322N) pretitrated with ~2.5 M excess of FusANTR-GFP (wild type or D53A); 25 °C, SEC Buffer; apparent.
Assay [10] has as its target C-terminal domain of FusB, D322N variant (Pectobacterium carotovorum LMG2410). Kind of assay: ITC; competition, apparent: SpFer injected into the cell holding FusB-CTD (wild type or D322N) pretitrated with ~2.5 M excess of FusANTR-GFP (wild type or D53A); 25 °C, SEC Buffer.

“C-terminal domain of FusB (FusB-CTD), wild type (domain or fragment)” came in with a stoichiometry N in [1] of 2.

Take “FusANTR-GFP D53A (from UniProt C6DG80 21-66) (domain or fragment)”: the Kd in assay [2] was 31.6 µM; in assay [3] it was 31.8 µM.

In the case of “GFP fusion construct containing the N-terminal region (residues 21-66) of FusA (FusANTR-GFP), wild type (from UniProt C6DG80 21-66) (domain or fragment)”, the Kd in assay [4] worked out at 38.8 µM; in assay [3], 9.4 µM; in assay [5], 25.3 µM.

In assay [6], “GFP fusion construct containing the N-terminal region (residues 21-66) of FusA (domain or fragment)” returned a Kd of 33 µM and a stoichiometry N of under 0.2. Also, in [7], the Kd stood at 31.2 µM and the stoichiometry N is under 0.2.

For “GFP fusion construct containing the N-terminal region (residues 21-66) of FusA, D53A variant (domain or fragment)”, the Kd in [8] was determined as 31.8 µM.

The substance “SpFer E93A/E94A (from UniProt P00221 51-147) (natural protein)” registered a Kd in [2] of 31.3 µM.

SpFer F64Y (natural protein) returned a Kd in assay [2] of 30.7 µM.

For “Spinacia oleracea (spinach) ferredoxin 1 (SpFer), wild type, recombinant (from UniProt P00221 51-147) (natural protein)”, the apparent KD with ~2.5 M excess of FusANTR-GFP in assay [9] amounted to 22.3 µM. Moreover, the Kd in assay [3] was found to be 7.4 µM; in [5], 25.5 µM.

In assay [7], “Spinacia oleracea (spinach) ferredoxin 1 with a C-terminal 6His-tag (from UniProt P00221 51-147) (natural protein)” displayed a Kd of 18.1 µM.

Regarding “Spinacia oleracea (spinach) ferredoxin 1, recombinant, tag-free (from UniProt P00221 51-147) (natural protein)”, the results for the Kd in assay [7] and in [10] were 7.8 µM and 17.7 µM, respectively.
